Assay results from paper PMC7299630.

B1: HTR2C RNA duplex probe (structured_RNA)
RNA: AUCAUGCACCUCUGCGCUAUAUCGCUGGAUCGGUAUGUAGCAAUACGUAAUCCUAUUGAGCAUAGCCGUUUCAAUUCGCGGACUAAGGCCAUCAUGAAGAUUGCUAUUGUUUGGGCAAUUUCUAUAGGUAAAUAAAACUUUUUGGCCAUAAGAAUUGCAGCGGCUAUGCUCAAUACUUUCGGAUUAUGUACUGUGAACAACGUACAGACGUCGACUGGUAACAUUUGCGUUUGAUCGGGUUCU
B2: MAGT1 RNA duplex probe (structured_RNA)
RNA: GCUAAUUUUUGUGUUUUUAGUAGAGACCUCGAGGUCUCUACUAAAAAUAUGAAAAUUAGC

Target: DAP3-GST (UniProt P51398 1-398)
Assay: EMSA

Binder	binding result
B1	no binding
B2	no binding
